In the supplement of paper PMC10567573:

B1: NEK8 (parent)
chain: VTIKHVACGDFFTACLTDRGIIMT
B2: ZNF511 (parent)
chain: AAPFRFVARPVRFPREHQFFEDGD

Variants of: B1
Experiment: protein stability index of a GFP-peptide fusion (GPS, HEK-293T) (PSI 1-6); higher = more stable
Settings: c terminus: a fixed tail appended
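Also: lentivirally expressed fusions sorted by FACS into six bins by GFP to DsRed ratio, PSI derived from sequencing read proportions per bin multiplied by bin number.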

Protein stability index of substitutions, site by site:
T17: P 2.64; K 4.32; H 3.72; S 3.16; R 3.53; N 4.51; V 3.2; D 2.27; L 3.17; M 3.48; C 2.27; F 3.49; Q 3.69; I 4.6; G 1.94
A14: C 2.65; E 1.47; K 1.9; V 2.55; W 2.01; T 3.17; I 2.87; G 2.51; R 2.34; Y 2.65; H 1.86; P 2.68; D 1.98; M 3.53; L 2.31; Q 1.12
L16: M 2.15; S 3.85; H 2.88; R 2.33; F 3.61; P 2.59; D 1.91; T 1.76; I 2.3; A 4.14; Q 3.06; E 1.89; C 2.43; Y 2.13; K 3.12
T13: D 3.61; K 3.17; I 1.31; P 3.32; V 2.64; Q 2.47; Y 3.95; L 2.11; F 2.81; H 3.07; M 2.39; N 1.86; S 1.28; C 2.13
R19: W 3.11; G 3.25; A 2.01; P 4.49; I 2.96; S 2.97; Q 1.92; T 2.77; V 2.56; C 2.48; N 3.56; H 1.81; Y 2.32; K 3.78; M 2.32; D 3.29; E 3.52
G20: T 1.48; P 3.42; S 2.84; Q 2.06; C 2.94; A 3.45; V 1.72; L 2.91; W 2.57; N 2.75; I 2.82; F 2.21; D 2.04; H 3.22; Y 2.3; K 2.35; M 3.22
D18: A 4.82; C 2.02; F 4.13; L 2.09; P 3.31; G 3.08; S 4.67; Y 3.05; T 2.72; K 4.11; W 3.08; N 3.07; R 5.42; V 3.85
M23: G 3.62; R 1.41; D 3.49; T 1.89; L 3.85; N 2.3; E 2.81; S 2.56; A 1.6; C 2.67; I 2.77; Y 3.28; V 2.73; K 1.91; Q 1.47; H 2.61; P 2.9
I22: P 2.67; F 4.9; A 2.38; W 4.62; K 3.62; Q 3.88; C 3.72; L 4.46; V 2.46; G 2.98; D 3.93; N 3.67; Y 2.39; E 3.75
C15: F 3.35; E 3.04; W 3.09; L 2.37; T 3.74; I 3.26; M 4.25; Q 2.59; K 2.58; S 3.9; R 2.91; V 2.5; H 1.61; D 3.14; N 4.23; Y 2.42
F12: Y 2.02; T 3.71; E 1.72; P 1.8; S 3.05; W 2.6; I 3.98; N 2.67; C 1.53; L 1.79; K 1.81; G 2.17; V 2.77; R 2.21; M 2.61; D 2.2
F11: N 2.85; V 2.76; I 4.45; D 1.46; Y 2.81; S 2.05; T 2.82; A 2.49; M 3.07; G 1.8; H 1.88; K 2.13; L 2.23; E 2.9; W 4.01; C 1.91; P 3.05; Q 3.07
I21: D 2.13; Q 2.92; S 2.5; L 2.25; V 3.14; W 2.31; C 2.7; R 2.49; M 2.95; H 2.36; G 3.21; F 2.9; P 2.25; E 3.51; T 2.48; N 2.87; K 2.78; A 1.79
T24: A 2.87; D 3.14; G 3.47; S 2.33; Y 2.3; N 2.41; F 2.64; I 3.19; L 4.18; V 2.81; E 3.11; R 2.45; K 2.93; C 2.87; H 1.84
D10: H 3.8; V 2.91; C 2.56; I 3.11; T 2.71; Y 2.44; L 2.26; N 1.59; W 2.4; K 3.54; E 3.23; R 2.3; M 3.29
G9: W 3.39; Y 3.79

Variants of: B2
Experiment: as above
Settings: c terminus: a fixed tail appended

Protein stability index: each site, then its substitutions
P3: C 1.36; R 2.65; E 1.61; L 1.93; M 1.62; S 2.76; Y 2.47; G 1.66; T 2.1; N 2.04; F 1.53; W 3.21; Q 2.26; D 1.06; V 1.53; I 1.34; H 2.59; A 2.37; K 1.81
A1: E 2.04; Y 4.23; D 2.2; H 1.63; P 2.29; W 2.31; T 1.22; Q 2.61; I 1.82; C 2.39; S 2.07; F 3.42; M 3.08; R 1.93; N 2.51; K 2.02
A2: V 1.53; R 1.93; G 2.36; F 1.85; I 2.69; P 2.32; W 1.47; D 3.25; Q 2.1; M 2.11; Y 2.42; H 2.48; C 2.05; S 3.91; L 1.32; K 2.01; N 3.12; E 2.8; T 2.28
R5: L 2.63; V 3.58; E 4.26; T 4.17; H 3.3; A 3.53; P 3.92; G 3.68; C 3.05; D 4.8; I 2.67; M 3.25; Q 4.61; K 3.91; W 1.89; N 4.22; S 4.16; Y 2.15; F 2.18
F6: C 2.81; A 4.3; D 4.19; E 4.45; G 4.43
F4: T 4.36; R 3.94; K 4.41; G 4.57; M 3.34; L 3.65; Q 4.68; A 4.66; W 2.48; Y 3.68; H 4.58; P 4.84; I 3.9; E 4.46; D 4.77; S 4.53; V 4.24; C 3.4; N 4.37
